Results published in paper PMC4841217, “Structure and stability of recombinant bovine odorant-binding protein: III. Peculiarities of the wild type bOBP unfolding in crowded milieu” (PeerJ, 2016).

Molecular target: the molecule itself
Experiment: intrinsic tryptophan fluorescence (parameter A, fluorescence anisotropy r) with GdnHCl unfolding-refolding curves; recombinant bOBP 0.1-0.2 mg/mL in 20 mM Na-phosphate pH 7.8 with PEG-600, PEG-4000 or PEG-12000 at 80, 150 or 300 mg/mL; incubated at 4 °C, measured at 23 °C; monomer to dimer, inferred from raised anisotropy and sigmoidal unfolding curves

B1: recombinant bovine odorant-binding protein (natural protein)
chain: AQEEEAEQNLSELSGPWRTVYIGSTNPEKIQENGPFRTYFRELVFDDEKGTVDFYFSVKRDGKWKNVHVKATKQDDGTYVADYEGQNVFKIVSLSRTHLVAHNINVDKHGQTTELTELFVKLNVEDEDLEKFWKLTEDKGIDKKNVVNFLENEDHPHPE
notes: Written as the single chain that associates with itself into the domain-swapped dimer; also called bOBP; recombinant bOBP; source: E. coli BL21(DE3), purified (Ni+-agarose, HisGraviTrap columns)
- binding result: binds
